Assay: yeast display, Sf9 membrane polyspecificity reagent, FACS + sequencing; frameworks hold sequencing errors
Procedure, shortened: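 Sorting gates, low and high (top ~1%), were placed on anti-HA fluorescence to track expression and on streptavidin fluorescence to track reagent binding. A clone's polyreactivity label is taken from the gate it came out of. The reagent was 10% biotinylated, detergent-solubilized Sf9 membrane, applied for 1 hour at 4 °C to galactose-induced yeast display cells.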

Sequence | polyreactivity (PSR sort gate)
QVQLVESGGGLVQEGGSLRLSCAASGRTFGYYVMGWYRQAPGKERELVAAISNTDSTYYADSVKGRFTISRDNAKNSVYLQMNSLKPEDTAVYYCDKDGRTVAYTWTRTHYYWGQGTQVTVSS | low polyreactivity
QVQLVESGGGLVQEGGSLRLSCAASGSIFVLYAMGWYRQAPGKERQLVAAINYEGASTYYADSVKGRFTISRDNAKITVYLQMNSLKPEDKAVFYCAARWQFNIDVQLYLFEYWGQGTQVTVSS | low polyreactivity
QVQLVESGGGLVQEGGSLRLSCAASGSTFDSNAMGWYRQAPGTERELVAAIDWSGGSTYYADSVKGRFTISRDNAKNSVYLQMNSLKPEDTAVYYCAADDYSSNYGDFDYWGQGTQVTVSS | low polyreactivity
QVQLVESGGGLVQEGGSLRLSCAASGSTFEYNAMGWDRQAPGKEREFVAAISRTGSRTYYADSVKGRFTISRDNAKNTVFLQMNSLIPEDTAVYYCASVKSRLQVGYYSWGQGTQVTVSS | high polyreactivity
QVQLVESGGGLVQEGGSLRLSCAASGSTFGVYSMGWYRQAPGKERELVAAISYTGGSTYYADSVKGRFTISRDNAKNSVYLQMNSLKPEDTGVFYCAVEVGYTDSPYSYDYWGEGTQVTVSS | low polyreactivity
QVQLVESGGGLVQEGGSLRLSCAASGSTFTTNVMGWYRQAPGKERELVAAISWSSGSTYYADSVTGRFTISRDNAKNTVYLQMNSLKPEDTAVYYCAARLVIFYPYSRYYYWGQGTQVTVSS | high polyreactivity
QVQLVESGGGLVQEGGSLRLSCAASGSTFTYYAMGWYRQAPGKERELVAAISRSGGNTYYADSVKGRFTISRDNAKNTVYLQMNSLKPEDTAVYYCAAYRQVYGFDYWGQGTQVTVSS | high polyreactivity
QVQLVESGGGLVQEGGSLRLSCAASGSTFWGYAMGWYRQAPGKERELVATITTGGSTNYADSVKGRFTISRDNAKNTVYLQMNSLKPEDTAVYYCAAERLFRFWYSAYERYDYCGQGTQVTVSS | low polyreactivity
QVQLVESGGGLVQEGGSLRLSCAASRRTFRLYVMGWYSQAPGKERELVAAITWRGRTTYYAHSVKGRFTISRDNAKNTVYLQMNSLKPEDTAVYYCATTRYPRSYQEFGYWGQGTQGTVSS | high polyreactivity
QVQLVESGGGLVQEGGSLRLSCAGSGRTFTFNVMGWYRQAPGKEREFVAAITGTDGSTYYADSVKGRFTISRDNAKNTVYLQMNSLKPEDTAVFYCAARYDWGYVDPGDYWGQGTQVTVSS | high polyreactivity
QVQLVESGGGLVQEGGSLRLSCAPSGRTFAKYAMGWYRQSPGKERELVAAITRGDTTNYADSVKGRFTISRDNAKNTVYLQMNSLKPEDTAVYYCAATPDPPHTYEYWGQGTQVTVSS | low polyreactivity
QVQLVESGGGLVQEGGSVRFSCAASGSISKPNARGWYRQAAGKERELVASITRGGIPNYADSVKGRVTISRDNAKNTVYLQMNSLKPEDTAVYDCAAFYAYSKYSYNIRFYYWGQGTQVTVAS | high polyreactivity
QVQLVESGGGLVQGGGSLRLSCAASGFIFDGNAMGWSRQAPGKEREFVASNSGSGDSTYYADSVKGRFTISRDNAKNTVYLQMNSLKPEDTAVYYCAYEGTPWASGNDYWGQGTQVTVSS | low polyreactivity
QVQLVESGGGLVQGGGSLRLSCAASGRTFAPNAMGWYRQAPGKERELVAAISYNSGTTYYADSVKGRFTISRDNAKNTVYLQMNSLKPEDTAVYYCAAGHWVGPYQAMEYWGQGTQVTVSS | high polyreactivity
QVQLVESGGGLVQGGSLRLSCAASGFTFPIYVMGWSRHAPGKEMELVASISSVGSTNYADSVKGRFTISRDNSKNTVYLQMNSLKPEDTAVYYCNADDPNSYGGFDYWGQGTQVTVSS | low polyreactivity
QVQLVESGGGLVQPGGILRLSCAASGYTFQVYAMGWYRQAPGKEREMVASIRWRGGRTYYADSVKGRFTISRDNAKNTVYLQMNSLKPEDTAVYYCAARQYVIYQTYYTYYYWGQGTQVSVSS | high polyreactivity
QVQLVESGGGLVQPGGSLRISCAASASTFFPYAMGWYRQAPGKERELVAAITGSGGSTYYADSVKGRFTISRDNAKNTVYLQMNSLKPEDTAVYYCNAVWEYYGKSDYWGQGTQVTVSS | low polyreactivity
QVQLVESGGGLVQPGGSLRLIFAASGSIFHYNAIGWYTQAPGKEREFVAVISKSSGSTFYADSVKGRFTISRDNAKNTVYLQMNSLKPEDTAVYYCNLVTKRYPIIGNYWGQGSQVTVSS | high polyreactivity
QVQLVESGGGLVQPGGSLRLSCAASGFILYGNAMGWYRQAPGKERELVAAISRRGGSTYYADSVKGRFTISRDNAKNTVYLQMNSLKPEDTAVYYCAKDGPGGGTRIYDYWGQGTQVTVSS | high polyreactivity
QVQLVESGGGLVQPGGSLRLSCAASGFTFRGYDMGWYRQAPGTERELVAGITWGDDSTYYADSVKGRFTISRDNAKNTVYLQMNSLKPEDTAVYYCATYFRVYYSQYDYWGEGTQVTVSS | high polyreactivity
QVQLVESGGGLVQPGGSLRLSCAASGRIFGWYARGWYRPAPGKERELVAAISRGGTRTNYADSVKGRFTISRDNAKNTVYLQMNSLKPEETAVYYCAARRYSRDFDYWGQGTQVTVSS | high polyreactivity

Sequence | polyreactivity (PSR sort gate)
QVQLVESGGGLVQPGGSLRLSCAASGRIQRYYAMGWYRQAPGKERELVAVITSSDGSTYYADSVKGRFTISRDNAKNTVYLQMNRLKPEDTAVYYCAAAPLWRLASWWDPYRRYDYWGQGTLVTVSS | low polyreactivity
QVQLVESGGGLVQPGGSLRLSCAASGRTFGYNAMGWYRQAPGKERELVAAIRYSGGSTYYADSVKGRFTISRDNAKNTVYLQMNSLKPEDTAVYYCAAYSLFSSYGNDYWGQGTQVTVSS | high polyreactivity
QVQLVESGGGLVQPGGSLRLSCAASGRTIGVYAMGWYRQAPGKERELVAAITTSGDSTYYADSVKGRFTISRDNAKNTVYLQMNSLKPEDTAVYYCAADYYYVYSSFGHYYWGQGTQVTVSS | low polyreactivity
QVQLVESGGGLVQPGGSLRLSCAASGRTYYINAMGWYRQAPGKERELVATISKSGGSTNYADSEKGRFTISRDNAMNTFYLQMNSLKPEDTAVYYCAADTSGGSWGRGRWKFGYWGQGTQVTVSS | high polyreactivity
QVQLVESGGGLVQPGGSLRLSCAASGSIFYWYNMGWYRQAPGKERELVAAINDSGGSTHYADSVKGRFTISRDNEKNTFYLQMNSLKPEDTAVYYCAARKLSSYAYDYWGQGTQVTVSS | low polyreactivity
QVQLVESGGGLVQPGGSLRLSCAASGSTFSGYTMGWYRQAPGKERELVASISSGVSTYYADSVKGRFTISRDNAKNTVYLQMNSLKPEDTAVYYCAADSVGDYGYQVYASWGYEDEYWGQGTQVTVSS | low polyreactivity
QVQLVESGGGLVQPRGSLSLSCAASGYIFDYYDMGWYRPAPGKERELVAAISSSGGTTYYADSVKGRFTISRDNGKNTVYLQMNSLKPEDTAVYYCAAVAVLPRSDYWGQGTQVTVSS | high polyreactivity
QVQLVESGGGLVQSGGSLLLSCAPSGSTFYEYALGGYRQAPGKDRELVAAITSGGSTYYADSVKGRFTISRDNAKNNDYLQMNSLKPEETAVYYCAADPRIRRGDRSTHGYDYWGQGTQVTVSS | low polyreactivity
QVQLVESGGGLVQSGGSLRLSCAASGGTFVPYAMGWDIQAPGKERELVARISKRGGTTYYADSVKGRFTISRDTAKITVYLQMNSLKPEDTAVSSCAAVLPARGYYWGQGTQVTVSS | high polyreactivity
QVQLVESGGGLVQSGGSLRLSCAASGIIFLDYVMVWYRQAPGKERELVAAISLSAGSTNYADSVKGRFTISRDNAKNTVYLQMNSLKPEDTAVYYCAAEVLAVRDDGYRSDEMDYWGQGTQVTVSS | low polyreactivity
QVQLVESGGGLVQSGGSLRLSCAASGRIFRKYVMAWYRPAPGNERELVATISNRVGSTYYADSVKGRFTISRDKAKNTVYLQMNSLKPEDTAVYYCAAVSSYTAYDYWGQGTQVTVSS | high polyreactivity
QVQLVESGGGLVQSGGSLRLSCAASGRTFKYNAMGWYRQAPGKERELVAVIRYSGGTTYYADSVKGRFTISRDNAKNTVYLQMNSLKPEDTAVYYCAADSWSRSVNYYYWGQGTQVTVSS | low polyreactivity
QVQLVESGGGLVQSGGSLRLSCAASGRTYGYNAMGWYRQAPGKERELVAAISRSGDSTYYADSVKGRFTISRDNAKNTVYLQMNSLKPEDTAVYYCATRYVTTGYDYWGQGTQVTVSS | low polyreactivity
QVQLVESGGGLVQSGGSLRLSCAASGSFYYFYSMGWYRQAPGKEREVVAANTDGGSTHYAESVKGRFTISRDNAKNTVYLQMNSMKPEDTAVYSCAAQWHYYLGSGYQYDYWGQGTQVTVSS | low polyreactivity
QVQLVESGGGLVQSGGSLRLSCAASGSIFGSNAMGWYRQAPGKERELVAAISRSGTSTYYADSVKGRFTISRDNAKNTVDLQMTSLKPEDSAVYYSNTAQRYRVYRYDYWGQGTQVTVSS | high polyreactivity
QVQLVESGGGLVQSGGSLRLSCAASGSIFIYYAMGWYRHAPGKERELVAAIDYSGDSTYYADSVKGRFTISRDNAKNTVYLQMNSLKPEDTAVYDCAVYYAGWGDYWGQGTQVTVSS | low polyreactivity
QVQLVESGGGLVQSGGSLRLSCAASGSTFVSNAMGWYRQAPGKERELVAAINGSGGITYYADSVKGRFTISRDNAKNTVYLQMNSLKPEDTAVYYCAAEYDGPSTWVDYYYHYGYWGQGTQVTVSS | low polyreactivity
QVQLVESGGGLVQSGGSLRLSCAASGSTLTFNAMGWYRQAPGKERELVAAISWSDTDTYYADSVKGRFTISRDNAKNTVYLQMNSLKPEDTAVYYCAATLSAYEMDYWGQGTQVTVSS | low polyreactivity
QVQLVESGGGLVQSGGSLRLSCAAYGNFFANNSMGWYRQAPGKERELVAAISQSGGNTYYADSVKGRFTISRDNAKNTVYLQMNSLKPEDTADYYCNAKTYGYNYDSWGQGTQVTVSS | low polyreactivity
QVQLVESGGGLVQSGGSLRLSSAAYGFIFPGNAMGWSRQAPGKEREMVAAISNSGSRTYYADSVKGRFTISRDHAKNTVYLQMNSLKPEDTAVYYCNADVHNRGWPYDYWGQGTQVTVSS | low polyreactivity

From the nanobody polyreactivity screen of Harvey et al. (2022)
